According to US20240270846A1 (published 2024):
Changes are numbered by the printed parent chain. Numbers in names are those of the source.

B1: GLS3000 R29A (Kabat) L chain altered form, one-arm antibody with CE115HA000 (antibody, human IgG1, kappa, L234A L235A, N297A, name in Kabat numbering)
heavy: QVQLVESGGGVVQPGRSLRLSCAASGFTFSNAWMHWVRQAPGKGLEWVAQIKAKSNNYATYYAESVKGRFTISRDDSKNSLYLQMNSLKTEDTAVYYCRYVHYGAYYGVDAWGQGTTVTVSSASTKGPSVFPLAPSSKSTSGGTAALGCLVKDYFPEPVTVSWNSGALTSGVHTFPAVLQSSGLYSLSSVVTVPSSSLGTQTYICNVNHKPSNTKVDKKVEPKSCDKTHTCPPCPAPEAAGGPSVFLFPPKPKDTLMISRTPEVTCVVVDVSHEDPEVKFNWYVDGVEVHNAKTKPREEQYASTYRVVSVLTVLHQDWLNGKEYKCKVSNKALPAPIEKTISKAKGQPREPQVYTLPPSRCELTKNQVSLSCAVKGFYPSDIAVEWESNGQPENNYKTTPPVLDSDGSFFLVSKLTVDKSRWQQGNVFSCSVMHEALHNHYTQKSLSLSPDYKDDDDK
chain: EPKSSDKTHTCPPCPAPELLGGPSVFLFPPKPKDTLMISRTPEVTCVVVDVSHEDPEVKFNWYVDGVEVHNAKTKPREEQYNSTYRVVSVLTVLHQDWLNGKEYKCKVSNKALPAPIEKTISKAKGQPREPQVCTLPPSRDELTKNQVSLWCLVKGFYPSDIAVEWESNGQPENNYKTTPPVLDSDGSFFLYSKLTVDKSRWQQGNVFSCSVMHEALHNRYTQKSLSLSP
light: DIVMTQSPLSLPVTPGEPASISCRSSQSLVHSNANTYLHWYQQKPGQAPRLLIYKVSNRFSGVPDRFSGSGSGTDFTLKISRVEAEDVGVYYCGQGTQVPYTFGQGTKLEIKRTVAAPSVFIFPPSDEQLKSGTASVVCLLNNFYPREAKVQWKVDNALQSGNSQESVTEQDSKDSTYSLSSTLTLSKADYEKHKVYACEVTHQGLSSPVTKSFNRGEC
notes: one-arm antibody
B2: GLS3000 R29D (Kabat) L chain altered form, one-arm antibody with CE115HA000 (antibody, human IgG1, kappa, L234A L235A, N297A, name in Kabat numbering)
heavy: B1 heavy
chain: B1 chain
light: B1 light with A34D
notes: one-arm antibody
B3: GLS3000 R29G (Kabat) L chain altered form, one-arm antibody with CE115HA000 (antibody, human IgG1, kappa, L234A L235A, N297A, name in Kabat numbering)
heavy: B1 heavy
chain: B1 chain
light: B1 light with A34G
notes: one-arm antibody
B4: GLS3000 R29I (Kabat) L chain altered form, one-arm antibody with CE115HA000 (antibody, human IgG1, kappa, L234A L235A, N297A, name in Kabat numbering)
heavy: B1 heavy
chain: B1 chain
light: B1 light with A34I
notes: one-arm antibody
B5: GLS3000 R29L (Kabat) L chain altered form, one-arm antibody with CE115HA000 (antibody, human IgG1, kappa, L234A L235A, N297A, name in Kabat numbering)
heavy: B1 heavy
chain: B1 chain
light: B1 light with A34L
notes: one-arm antibody
B6: GLS3000 R29P (Kabat) L chain altered form, one-arm antibody with CE115HA000 (antibody, human IgG1, kappa, L234A L235A, N297A, name in Kabat numbering)
heavy: B1 heavy
chain: B1 chain
light: B1 light with A34P
notes: one-arm antibody
B7: GLS3000 R29S (Kabat) L chain altered form, one-arm antibody with CE115HA000 (antibody, human IgG1, kappa, L234A L235A, N297A, name in Kabat numbering)
heavy: B1 heavy
chain: B1 chain
light: B1 light with A34S
notes: one-arm antibody
B8: GLS3000 R29T (Kabat) L chain altered form, one-arm antibody with CE115HA000 (antibody, human IgG1, kappa, L234A L235A, N297A, name in Kabat numbering)
heavy: B1 heavy
chain: B1 chain
light: B1 light with A34T
notes: one-arm antibody
B9: GLS3000 R29V (Kabat) L chain altered form, one-arm antibody with CE115HA000 (antibody, human IgG1, kappa, L234A L235A, N297A, name in Kabat numbering)
heavy: B1 heavy
chain: B1 chain
light: B1 light with A34V
notes: one-arm antibody
B10: GLS3000 R29Y (Kabat) L chain altered form, one-arm antibody with CE115HA000 (antibody, human IgG1, kappa, L234A L235A, N297A, name in Kabat numbering)
heavy: B1 heavy
chain: B1 chain
light: B1 light with A34Y
notes: one-arm antibody
B11: GLS3000 R54A (Kabat) L chain altered form, one-arm antibody with CE115HA000 (antibody, human IgG1, kappa, L234A L235A, N297A, name in Kabat numbering)
heavy: B1 heavy
chain: B1 chain
light: B1 light with A34R, R59A
notes: one-arm antibody
B12: GLS3000 S25A (Kabat) L chain altered form, one-arm antibody with CE115HA000 (antibody, human IgG1, kappa, L234A L235A, N297A, name in Kabat numbering)
heavy: B1 heavy
chain: B1 chain
light: B1 light with S25A, A34R
notes: one-arm antibody
B13: GLS3000 S25D (Kabat) L chain altered form, one-arm antibody with CE115HA000 (antibody, human IgG1, kappa, L234A L235A, N297A, name in Kabat numbering)
heavy: B1 heavy
chain: B1 chain
light: B1 light with S25D, A34R
notes: one-arm antibody
B14: GLS3000 S25E (Kabat) L chain altered form, one-arm antibody with CE115HA000 (antibody, human IgG1, kappa, L234A L235A, N297A, name in Kabat numbering)
heavy: B1 heavy
chain: B1 chain
light: B1 light with S25E, A34R
notes: one-arm antibody
B15: GLS3000 S25I (Kabat) L chain altered form, one-arm antibody with CE115HA000 (antibody, human IgG1, kappa, L234A L235A, N297A, name in Kabat numbering)
heavy: B1 heavy
chain: B1 chain
light: B1 light with S25I, A34R
notes: one-arm antibody
B16: GLS3000 S25L (Kabat) L chain altered form, one-arm antibody with CE115HA000 (antibody, human IgG1, kappa, L234A L235A, N297A, name in Kabat numbering)
heavy: B1 heavy
chain: B1 chain
light: B1 light with S25L, A34R
notes: one-arm antibody
B17: GLS3000 S25M (Kabat) L chain altered form, one-arm antibody with CE115HA000 (antibody, human IgG1, kappa, L234A L235A, N297A, name in Kabat numbering)
heavy: B1 heavy
chain: B1 chain
light: B1 light with S25M, A34R
notes: one-arm antibody
B18: GLS3000 S25P (Kabat) L chain altered form, one-arm antibody with CE115HA000 (antibody, human IgG1, kappa, L234A L235A, N297A, name in Kabat numbering)
heavy: B1 heavy
chain: B1 chain
light: B1 light with S25P, A34R
notes: one-arm antibody
B19: GLS3000 S25T (Kabat) L chain altered form, one-arm antibody with CE115HA000 (antibody, human IgG1, kappa, L234A L235A, N297A, name in Kabat numbering)
heavy: B1 heavy
chain: B1 chain
light: B1 light with S25T, A34R
notes: one-arm antibody
B20: GLS3000 S25V (Kabat) L chain altered form, one-arm antibody with CE115HA000 (antibody, human IgG1, kappa, L234A L235A, N297A, name in Kabat numbering)
heavy: B1 heavy
chain: B1 chain
light: B1 light with S25V, A34R
notes: one-arm antibody
B21: GLS3000 S26D (Kabat) L chain altered form, one-arm antibody with CE115HA000 (antibody, human IgG1, kappa, L234A L235A, N297A, name in Kabat numbering)
heavy: B1 heavy
chain: B1 chain
light: B1 light with S26D, A34R
notes: one-arm antibody
B22: GLS3000 S26E (Kabat) L chain altered form, one-arm antibody with CE115HA000 (antibody, human IgG1, kappa, L234A L235A, N297A, name in Kabat numbering)
heavy: B1 heavy
chain: B1 chain
light: B1 light with S26E, A34R
notes: one-arm antibody
B23: GLS3000 S26P (Kabat) L chain altered form, one-arm antibody with CE115HA000 (antibody, human IgG1, kappa, L234A L235A, N297A, name in Kabat numbering)
heavy: B1 heavy
chain: B1 chain
light: B1 light with S26P, A34R
notes: one-arm antibody
B24: GLS3000 S27aD (Kabat) L chain altered form, one-arm antibody with CE115HA000 (antibody, human IgG1, kappa, L234A L235A, N297A, name in Kabat numbering)
heavy: B1 heavy
chain: B1 chain
light: B1 light with S28D, A34R
notes: one-arm antibody
B25: GLS3000 S27aE (Kabat) L chain altered form, one-arm antibody with CE115HA000 (antibody, human IgG1, kappa, L234A L235A, N297A, name in Kabat numbering)
heavy: B1 heavy
chain: B1 chain
light: B1 light with S28E, A34R
notes: one-arm antibody
B26: GLS3000 S27aG (Kabat) L chain altered form, one-arm antibody with CE115HA000 (antibody, human IgG1, kappa, L234A L235A, N297A, name in Kabat numbering)
heavy: B1 heavy
chain: B1 chain
light: B1 light with S28G, A34R
notes: one-arm antibody
B27: GLS3000 S27aI (Kabat) L chain altered form, one-arm antibody with CE115HA000 (antibody, human IgG1, kappa, L234A L235A, N297A, name in Kabat numbering)
heavy: B1 heavy
chain: B1 chain
light: B1 light with S28I, A34R
notes: one-arm antibody
B28: GLS3000 S27aN (Kabat) L chain altered form, one-arm antibody with CE115HA000 (antibody, human IgG1, kappa, L234A L235A, N297A, name in Kabat numbering)
heavy: B1 heavy
chain: B1 chain
light: B1 light with S28N, A34R
notes: one-arm antibody
B29: GLS3000 S27aP (Kabat) L chain altered form, one-arm antibody with CE115HA000 (antibody, human IgG1, kappa, L234A L235A, N297A, name in Kabat numbering)
heavy: B1 heavy
chain: B1 chain
light: B1 light with S28P, A34R
notes: one-arm antibody
B30: GLS3000 S27aY (Kabat) L chain altered form, one-arm antibody with CE115HA000 (antibody, human IgG1, kappa, L234A L235A, N297A, name in Kabat numbering)
heavy: B1 heavy
chain: B1 chain
light: B1 light with S28Y, A34R
notes: one-arm antibody
B31: GLS3000 S27eA (Kabat) L chain altered form, one-arm antibody with CE115HA000 (antibody, human IgG1, kappa, L234A L235A, N297A, name in Kabat numbering)
heavy: B1 heavy
chain: B1 chain
light: B1 light with S32A, A34R
notes: one-arm antibody
B32: GLS3000 S27eD (Kabat) L chain altered form, one-arm antibody with CE115HA000 (antibody, human IgG1, kappa, L234A L235A, N297A, name in Kabat numbering)
heavy: B1 heavy
chain: B1 chain
light: B1 light with S32D, A34R
notes: one-arm antibody
B33: GLS3000 S27eE (Kabat) L chain altered form, one-arm antibody with CE115HA000 (antibody, human IgG1, kappa, L234A L235A, N297A, name in Kabat numbering)
heavy: B1 heavy
chain: B1 chain
light: B1 light with S32E, A34R
notes: one-arm antibody
B34: GLS3000 S27eF (Kabat) L chain altered form, one-arm antibody with CE115HA000 (antibody, human IgG1, kappa, L234A L235A, N297A, name in Kabat numbering)
heavy: B1 heavy
chain: B1 chain
light: B1 light with S32F, A34R
notes: one-arm antibody

target: T1, CD3 epsilon homodimer protein (UniProt P07766 23-126); test: SPR Biacore T200, CD3 epsilon homodimer immobilized; vs unaltered GLS3000;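 further: antibody variants flowed as analyte over CD3 epsilon homodimer amine-coupled to a CM4 chip, at 25 °C in HBS-EP+ running buffer, fitted with Biacore T200 Evaluation Software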
T1 construct: construct not described; homodimer as printed; also called CD3 (CD3 epsilon)
T1 sequence (P07766 23-126): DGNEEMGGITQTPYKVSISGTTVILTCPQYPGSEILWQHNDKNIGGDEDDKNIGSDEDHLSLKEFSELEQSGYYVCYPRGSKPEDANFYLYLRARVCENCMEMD

| Binder | KD ratio to GLS3000 (Affinity up) |
| --- | --- |
| B1 | 1.15 |
| B2 | 1.58 |
| B3 | 0.62 |
| B4 | 1.6 |
| B5 | 0.9 |
| B6 | 14 |
| B7 | 1.05 |
| B8 | 1.02 |
| B9 | 2.25 |
| B10 | 1.08 |
| B11 | 0.85 |
| B12 | 0.73 |
| B13 | 8.86 |
| B14 | 6.54 |
| B15 | 0.67 |
| B16 | 4.93 |
| B17 | 1.6 |

| Binder | KD ratio to GLS3000 (Affinity up) |
| --- | --- |
| B18 | 0.79 |
| B19 | 0.75 |
| B20 | 0.74 |
| B21 | 1.06 |
| B22 | 0.9 |
| B23 | 0.67 |
| B24 | 0.94 |
| B25 | 0.94 |
| B26 | 0.8 |
| B27 | 0.87 |
| B28 | 0.98 |
| B29 | 1.01 |
| B30 | 0.93 |
| B31 | 1.01 |
| B32 | 1.23 |
| B33 | 1.04 |
| B34 | 1.16 |
